From paper PMC3014015, “Structural Insights into Substrate Specificity in Variants of N-Acetylneuraminic Acid Lyase Produced by Directed Evolution” (Journal of Molecular Biology, 2010)

Columns and labels:
[1] = system: T1, CCCN(CCC)C(=O)[C@H](O)[C@H](O)C(O)CC(=O)C(=O)O; assay: steady-state kinetics (Km), coupled lactate dehydrogenase/NADH assay; type: biochemical, Escherichia coli
T1 construct: hexa-His-tagged protein

[2] = target: E192N variant of Escherichia coli N-acetylneuraminic acid lyase (Escherichia coli); assay: crystal structure; space group P2_(1), four crystallographically independent subunits (tetramer); crystals grown at 4 °C by sitting drop in 100 mM Tris-HCl pH 8.0-8.30, 200 mM NaCl, 18% (wt/vol) PEG 3350; some crystals soaked with 100 mM pyruvate and 70 mM THB
[3] = target: T2, N-acetylneuraminic acid lyase (Escherichia coli, UniProt P0A6L4, E192Q); assay: steady-state kinetics (Km), coupled lactate dehydrogenase/NADH assay; type: biochemical; details: read-out: Neu5Ac / Km
T2 construct: gene nanA; hexa-His-tagged protein
T2 sequence (P0A6L4 2-297 E192Q): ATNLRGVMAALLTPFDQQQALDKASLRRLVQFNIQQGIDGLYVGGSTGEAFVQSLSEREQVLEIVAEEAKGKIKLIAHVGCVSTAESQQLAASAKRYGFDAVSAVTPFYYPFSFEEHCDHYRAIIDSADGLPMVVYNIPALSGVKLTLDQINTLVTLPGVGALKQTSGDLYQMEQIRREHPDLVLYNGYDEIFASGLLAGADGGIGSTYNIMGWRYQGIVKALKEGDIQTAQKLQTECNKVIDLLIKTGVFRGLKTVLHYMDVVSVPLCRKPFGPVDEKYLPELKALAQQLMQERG

[4] = target: T3, N-acetylneuraminic acid lyase (Escherichia coli, UniProt P0A6L4, E192N); assay: coupled cleavage assay of purified enzyme; crystal soaking gave only the cleavage product pyruvate; type: biochemical
T3 construct: gene nanA; hexa-His-tagged protein
T3 sequence (P0A6L4 2-297 E192N): T2 sequence (P0A6L4 2-297 E192Q)

stoichiometry N [2] | Compound | Km [1] [µM] | kcat [1] [s⁻¹] | kcat/Km [1] [M⁻¹ s⁻¹] | Km [3] [µM] | coupled cleavage assay of purified enzyme; crystal soaking gave only the cleavag [4]
 | N-acetylneuraminic acid lyase (Escherichia coli K-12; E192M) | 200 ± 30 | 1.17 ± 0.05 | 5330 |  | 
 | N-acetylneuraminic acid lyase (Escherichia coli K-12; E192Q) | 700 ± 50 | 2.83 ± 0.0667 | 4170 |  | 
 | N-acetylneuraminic acid lyase (Escherichia coli K-12; E192P) | 200 ± 20 | 0.817 ± 0.0167 | 4330 |  | 
4 | E192N variant of Escherichia coli N-acetylneuraminic acid lyase (enzyme) |  |  |  |  | 
 | N-Acetylneuraminic acid [Neu5Ac] |  |  |  | 3500 ± 500 | 
 | N-acetylneuraminic acid lyase (Escherichia coli K-12; E192F) | 300 ± 20 | 1.47 ± 0.0333 | 5170 |  | 
 | CCCN(CCC)C(=O)[C@H](O)[C@H](O)C(O)CC(=O)C(=O)O (stereo partly drawn) [DPAH, (5R,6R)-7-(dipropylamino)-4,5,6-trihydroxy-2,7-dioxoheptanoic acid] |  |  |  |  | confirmed that the E192N enzyme had the highest activity for DPAH
